Measurements: PMC7587433

Tests used:
[1] = molecular target: rFN12-14 (recombinant fibronectin type III repeats 12 to 14); test: SPR; Biacore T200, C1 sensor chip; rFN12-14 immobilised (~870 RU); rF-, rFG-repeat or multiple repeats in HBS-EP injected at 40 μl/min; double referencing
[2] = molecular target: fibronectin (full-length human Fn, Sigma-Aldrich) (human) (UniProt P02751); test: SPR; Biacore T200, C1 sensor chip, 25°C, HBS-EP (10 mM HEPES pH 7.4, 150 mM NaCl, 3 mM EDTA, 0.005% Surfactant P20); Fn immobilised by amine coupling (~1,000 RU); rF- and rFG-repeats injected at 40 μl/min

| Substance | Kd [1] [µM] | Kd [2] [µM] |
| --- | --- | --- |
| r2F-repeats (recombinant Embp fragment, aa 2569 to 2908) (domain or fragment) | 10 | – |
| r2FG-repeats (recombinant Embp fragment, aa 6777 to 7028) (domain or fragment) | 0.5 | – |
| r4F-repeats (recombinant Embp fragment, aa 2569 to 3248) (domain or fragment) | 20 | – |
| rF-repeat (recombinant first F-repeat of Embp, aa 2569 to 2738) | – | 4 |
| rF-repeat (recombinant first F-repeat of Embp, aa 2569 to 2738) (domain or fragment) | 29 | – |
| rFG-repeat (recombinant 19th FG-repeat of Embp, aa 6777 to 6902) (domain or fragment) | 0.13 | 0.0016 |
